The DeepSol protein solubility set

assay: soluble on expression in E. coli; label from the status in PepcDB or PDB records

**Q.** Which “soluble on expression in E. coli” value does the source give for “MELRIGFGFDSHEFVEGKLLILGGVEIEKDYGLKGHSDGDALLHAITDAILGALGERDIGEIFKDTDPRWKNAPSRIFLEKALEVMSEKGFNISNIDCVIVADRPKIAPHKERIKESLSKLLGIPKERISLKGKRREGFCEGNGLVCMCTVLLVKMLEHHHHHH” here?
**A.** soluble

**Q.** With “MNEALSSGKVKNGEFLTVYLKEKLPDRLHYSQSYRIPPIIGMVGEGLIVRQNRTNAQECYGDHGYDNKFFSMRTIFVGHGSRFRRGKKVPSFENVQIYSVVADILGLRPAPNNGSSLFPRSILLPFRATRGLE” as the sequence, how does the “soluble on expression in E. coli” value read?
**A.** not soluble

**Q.** Which “soluble on expression in E. coli” value does the source give for “MDIILGIRVQDSVILASSKAVTRGISVLKDSDDKTRQLSPHTLMSFAGEAGDTVQFAEYIQANIQLYSIREDYELSPQAVSSFVRQELAKSIRSRRPYQVNVLIGGYDKKKNKPELYQIDYLGTKVELPYGAHGYSGFYTFSLLDHHYRPDMTTEEGLDLLKLCVQELEKRMPMDFKGVIVKIVDKDGIRQVDDFQAQ” here?
**A.** soluble

**Q.** For “MAQALWTRNKSEITDEEYKEFYKHIAHDFNDPLTWSHNRVEGKQEYTSLLYIPSQAPWDMWNRDHKHGLKLYVQRVFIMDDAEQFMPNYLRFVRGLIDSSDLPLNVSREILQDSTVTRNLRNALTKRVLQMLEKLAKDDAEKYQTFWQQFGLVLKEGPAEDFANQEAIAKLLRFASTHTDSSAQTVSLEDYVSRMKEGQEKIYYITADSYAAAKSSPHLELLRKKGIEVLLLSDRIDEWMMNYLTEFDGKPFQSVSKVDESLEKLADGDLGTLVPRGSMAISDPNSSSVDKLAAALEHHHHHH”, which “soluble on expression in E. coli” value is on record?
**A.** soluble

**Q.** For “GMEQATRTIYSEYAAYPETQGIIAVEKRQPRDSLTDQFDVLLLVITRDPSVEWTVKHYRLNTLRVSLHLVHEQVLSRWLILNANRRAVHWVSEGTIIFERNDYLTDLKKQLRNFPETERCLQMSLSFAKLLRRFQDGRNLFSRGNYYDAYTHVHHALHHLARLSVLEKGAHPEVVVWEQARLDDPDVYKLYEQLLLSEETLEQRIHLALIGLEHLLQSKVLSGGKYLFEVMRERDRPWTMHELMEESRLTELKVDLGSLVDFFIRKGLIRISYQRTKGLGVELVTYEPVV”, which “soluble on expression in E. coli” value is on record?
**A.** soluble

**Q.** Which “soluble on expression in E. coli” value does the source give for “MSLRDSAFFETGEKHFRTLCSSCHSAHQEIYGPMLGSISKKRKESWLIPFIRNSQEVIRSGDAYAKALFEKFDHQIMPPFEQLSDQDIKAILYYLEIESLQPQEYLNDAAIPPTSDSSVIRGKQEFLDHCSMCHFVHKESTFAPALGSVTKRHSREWLISFIQNSEKKINQGDAYAVHLFNQFDQHVMTNMDFLPIEEINAILDYIEFASTVDVAEGHHHHHH” here?
**A.** not soluble

**Q.** With “MGSDKIHHHHHHTEDKDWSGGLKNSDLVFQTYLPTEGAKGTELSIRGNNFGEDISQVQVWVNEKEAEVISVTSTRIMARVAEASGSGVVKVRVGEVVYSYPDLFSYGYIRNVYTVAGNGQGTTVDGAYLQASVQWPIVMVYDKWDDAILFLQDEGEHRIRRMKDGKIETLCSTKSLVNNARSICFSLDGDTLFIGNDNANNYVANPVAVGMVTRKGGFKDLKSYIPSEKLAQPHINGIAVNPVDGSLFTYHWGRHVFRYNKATETCEYVITRDQFNELVVGLFPDADGNMQNIGGDGGYGGLAFSPDGKTLYWNGRDPYQGILKADYDLVTKKCTNLTRFAGNGVWGIIDGQGVSSRMDQPNQIAVDAEGNLLVTTVYGRTVRKITPEGYVSTYAGIGYQTGYVDGLAAEAKFNKPYGIAIDAQGNVYVGDCENWRIRVIKEE” as the sequence, how does the “soluble on expression in E. coli” value read?
**A.** not soluble

**Q.** For “MGSDKIHHHHHHMANVNKTPGKTRRAEVAGGGFAGLTAAIALKQNGWDVRLHEKSSELRAFGAGIYLWHNGLRVLEGLGALDDVLQGSHTPPTYETWMHNKSVSKETFNGLPWRIMTRSHLHDALVNRARALGVDISVNSEAVAADPVGRLTLQTGEVLEADLIVGADGVGSKVRDSIGFKQDRWVSKDGLIRLIVPRMKKELGHGEWDNTIDMWNFWPRVQRILYSPCNENELYLGLMAPAADPRGSSVPIDLEVWVEMFPFLEPCLIEAAKLKTARYDKYETTKLDSWTRGKVALVGDAAHAMCPALAQGAGCAMVNAFSLSQDLEEGSSVEDALVAWETRIRPITDRCQALSGDYAANRSLSKGNMFTPAALEAARYDPLRRVYSWPQ”, which “soluble on expression in E. coli” value is on record?
**A.** not soluble

**Q.** Which “soluble on expression in E. coli” value does the source give for “MSLPDEQGRRTVTLETAEEALLKRAVVYDHDGDEHYHVASALIKSIRGSDPDAALYWLARMLYAGEDPRFIARRLVISAAEDIGLADPQALVIAQAAADAVSFIGMPEGRIPLAEAVVYLACAPKSNSAYLAIDRALAVVEREKTPPVPNHLKDTGYGSDQRLGYGKGYQYPHDFPGAWVEQRYLPEGVDGPFWEPKGYGREAELARLLRERRGREGHHHHHH” here?
**A.** soluble

**Q.** For “MAKIGFVSLGCPKALVDSEQILSRLKALGYETSPSYEEAELVIVNTCGFINEAVEESLEAIGEALKENGKVVVTGCLGARPEKIRERHPQVLAVTGPGEVERVLEAVQEVLPAPRDPFLDLIPPQVKLTPRHYAYVKLSEGCDHRCSFCIIPKLRGRLRSRDAADVLAEAARLVATGTKELLLVAQDLSAYGVDLGHRESLWGDRPVRAELKDLLTHMAELGVWIRLHYVYPYPHVKDLLPLMAEGKVLPYLDVPLQHASPRILRLMRRPGGYESHLKTLKAWREVVPELALRSTFIVGFPGETEEDFQILLDFLEEAELDRVGVFAYSPVEGAEANRLPDPVPEEVKEERKARLLEVQARVSLRKNQRFVGKTLEVLVDELPEPGLAVGRTYRDAPGVDGVVYVETDGTVRVGERIPVRILRADTYDLHGVQAAAALEHHHHHH”, which “soluble on expression in E. coli” value is on record?
**A.** soluble

**Q.** Which “soluble on expression in E. coli” value does the source give for “MGHHHHHHSHMKVVLSLGGSVLSNESEKIREFAKTIESVAQQNQVFVVVGGGKLAREYIKRARELGASETFCDYIGIAATRLNAMLLISAIPSAAKKVPVDFMEAEELSKLYRVVVMGGTFPGHTTDATAALLAEFIKADVFINATNVDGVYSADPKSDTSAVKYDRLSPQQLVEIVSRSSAKAGTNVVIDLLAAKIIERSKIKTYVIL” here?
**A.** soluble

**Q.** Which “soluble on expression in E. coli” value does the source give for “MSLTAENILNRNFEANKPNQKWFTDISYLNYGKGQKAYISAIIDRYDLSIIVYKVSKRNDLKLVMDILKLALQNNDASNTILHSDRGFQYTSKHYKNYLDTHNVKISMSKAGSCLDNQPIEAFWGTLKSEYYYRNQFSTYEDLETGISEYINYYMNKRYVPKFDGLTPNEYRNVSEGHHHHHH” here?
**A.** not soluble

**Q.** Which “soluble on expression in E. coli” value does the source give for “GMTSTSITAVEYQSKRLESRLLKETREYVIALPEGYAQSLEAYPVVYLLDGEDQFDHMASLLQFLSQGTMPQIPKVIIVGIHNTNRMRDYTPTHTLVLPSGNKGNPQYQHTGGAGRFLDFIEKELAPSIESQLRTNGINVLVGHSFGGLVAMEALRTDRPLFSAYLALDTSLWFDSPHYLTLLEERVVKGDFKQKQLFMAIANNPLSPGFGVSSYHKDLNLAFADKLTKLAPKGLGFMAKYYPEETHQSVSHIGLYDGIRHLFKDFAIDIYSDSFSKQQVIDQYGVLSERFGHKVTPSQQYLEQLIQYSDRQQLTERKQMLEGLRQHFAKD” here?
**A.** soluble

**Q.** With “MGSDKIHHHHHHMSNLQKVIVFGASGFLGEHIIKSLISENWDVYAAVRTKPESSTDGFNQTQVTYYEGDLEDQKYIQDAIAGMDAIIFSAGCTWKSDLEISEYYRRNVQITKNFFTALGDRPNVRIVYTSSMSVIAGSKSDYIFFEDSDRSQVSQNQLSPYDLAKIECEQIALDYAQRGNNLVILNPGNMLGPGVFNHSKITTSILVLWFCQKQFPFYINGGHSYCDVRDVAKAHVAALTRGRSGERYIVAGDNLDMASISSLLVKMTGFKMPQQLPASGVYLLSLLLESLSLLSFRLFKNPYHPDFVKSFALHYYANSQKAIKELAYNITPIETTLIDTIKYFGKRELLSEDLNFFALMTHSNIQSLIYLRQLASQHTFSQFLLSKISQIYGICQSNLSLNNVLDNLVNHSKFNIKTGKFQPDKTKCQEDLKSINQLFEYLYFASNDFLSEVI” as the sequence, how does the “soluble on expression in E. coli” value read?
**A.** not soluble

**Q.** Which “soluble on expression in E. coli” value does the source give for “MAGPSWRHIRAEGLDCSYTVLFGKAEADEIFQELEKEVEYFTGALARVQVFGKWHSVPRKQATYGDAGLTYTFSGLTLSPKPWIPVLERIRDHVSGVTGQTFNFVLINRYKDGCDHIGEHRDDERELAPGSPIASVSFGACRDFVFRHKDSRGKSPSRRVAVVRLPLAHGSLLMMNHPTNTHWYHSLPVRKKVLAPRVNLTFRKILLTKKLEHHHHHH” here?
**A.** soluble

**Q.** Which “soluble on expression in E. coli” value does the source give for “MERKISRIHLVSEPSITHFLQVSWEKTLESGFVITLTDGHSAWTGTVSESEISQEADDMEMEKGKYVGELRKALLSGAGPADVYTFNFSKESCYFFFEKNLKDVSFRLGSFNLEKVENPAEVIRELICYCLDTTAENQAKNEHLQKENERLLRDWNDVQGRFEKCVSAKEALETDLYKRFILVLNEKKTKIRSLHNKLLNAAQ” here?
**A.** soluble
